Residue numbers refer to the chain shown, from its start. Names and notes keep the numbering of the source.
T1: PUF4 RNA-binding domain (Saccharomyces cerevisiae, UniProt P25339 537-888)
T1 sequence: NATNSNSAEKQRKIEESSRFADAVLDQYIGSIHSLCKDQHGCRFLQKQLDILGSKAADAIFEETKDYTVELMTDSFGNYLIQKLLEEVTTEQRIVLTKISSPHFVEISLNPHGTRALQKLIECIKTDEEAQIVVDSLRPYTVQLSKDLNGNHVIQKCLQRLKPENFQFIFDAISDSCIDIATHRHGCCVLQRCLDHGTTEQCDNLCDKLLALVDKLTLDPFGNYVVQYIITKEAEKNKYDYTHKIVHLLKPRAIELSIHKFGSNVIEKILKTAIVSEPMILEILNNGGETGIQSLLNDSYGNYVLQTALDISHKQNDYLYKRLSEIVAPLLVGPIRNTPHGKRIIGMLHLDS

B1: Ic_S2_P5E.1_K5.1_C5.1_H5.1_A5.1_F5.1_[T8A]_[T9C]_[A10T]_T5.1 (ssRNA)
RNA: UUUGAUUAAUAUGAUAUCGUUCUUUCUUGUAUUAACUUUCUUUCUCGAUAUCAUAUUAAUCUUU
B2: Ic_S2_P5E.1_K5.1_C5.1_H5.1_A5.1_[T5G]_[T6C]_F5.1_[T9C]_T5.1 (ssRNA)
RNA: B1 RNA with U32G, U33C, A35U, U37A
B3: Ic_S2_P5E.1_K5.1_C5.1_H5.1_A5.1_[T5C]_[T6C]_[A7C]_F5.1_[T8G]_[T9C]_[A10C]_T5.1 (ssRNA)
RNA: B1 RNA with U32C, U33C, A34C, A35G, U37C
B4: Ic_S2_P5E.1_K5.1_C5.1_H5.1_A5.1_[T5A]_[T6C]_[A7C]_F5.1_[T8A]_[A10G]_T5.1 (ssRNA)
RNA: B1 RNA with U32A, U33C, A34C, C36U, U37G
B5: Ic_S2_P5E.1_K5.1_C5.1_H5.1_A5.1_[T5A]_[T6C]_[A7T]_F5.1_[T9G]_[A10T]_T5.1 (ssRNA)
RNA: B1 RNA with U32A, U33C, A34U, A35U, C36G
B6: Ic_S2_P5E.1_K5.1_C5.1_H5.1_A5.1_[T5C]_[T6A]_F5.1_[T9A]_T5.1 (ssRNA)
RNA: B1 RNA with U32C, U33A, A35U, C36A, U37A
B7: Ic_S2_P5E.1_K5.1_C5.1_H5.1_A5.1_[T5C]_[T6C]_[A7C]_F5.1_[T8A]_[T9G]_[A10C]_T5.1 (ssRNA)
RNA: B1 RNA with U32C, U33C, A34C, C36G, U37C
B8: Ic_S2_P5E.1_K5.1_C5.1_H5.1_A5.1_[T6G]_[A7T]_F5.1_[T8G]_[T9C]_[A10C]_T5.1 (ssRNA)
RNA: B1 RNA with U33G, A34U, A35G, U37C
B9: Ic_S2_P5E.1_K5.1_C5.1_H5.1_A5.1_[T5A]_[A7T]_F5.1_[T9G]_[A10C]_T5.1 (ssRNA)
RNA: B1 RNA with U32A, A34U, A35U, C36G, U37C
B10: Ic_S2_P5E.1_K5.1_C5.1_H5.1_A5.1_[T5G]_[A7C]_F5.1_[T9A]_T5.1 (ssRNA)
RNA: B1 RNA with U32G, A34C, A35U, C36A, U37A
B11: Ic_S2_P5E.1_K5.1_C5.1_H5.1_A5.1_[T5A]_[A7C]_F5.1_[T9C]_[A10T]_T5.1 (ssRNA)
RNA: B1 RNA with U32A, A34C, A35U
B12: Ic_S2_P5E.1_K5.1_C5.1_H5.1_A5.1_[T5G]_[T6C]_[A7T]_F5.1_[T8A]_[A10T]_T5.1 (ssRNA)
RNA: B1 RNA with U32G, U33C, A34U, C36U
B13: Ic_S2_P5E.1_K5.1_C5.1_H5.1_A5.1_[T5A]_[T6A]_[A7T]_F5.1_[A10T]_T5.1 (ssRNA)
RNA: B1 RNA with U32A, U33A, A34U, A35U, C36U
B14: Ic_S2_P5E.1_K5.1_C5.1_H5.1_A5.1_[T5C]_[A7G]_F5.1_[T9G]_[A10T]_T5.1 (ssRNA)
RNA: B1 RNA with U32C, A34G, A35U, C36G
B15: Ic_S2_P5E.1_K5.1_C5.1_H5.1_A5.1_[T5A]_[A7G]_F5.1_[T8C]_[A10T]_T5.1 (ssRNA)
RNA: B1 RNA with U32A, A34G, A35C, C36U
B16: Ic_S2_P5E.1_K5.1_C5.1_H5.1_A5.1_[T5C]_[A7T]_F5.1_[T8A]_[T9C]_[A10G]_T5.1 (ssRNA)
RNA: B1 RNA with U32C, A34U, U37G
B17: Ic_S2_P5E.1_K5.1_C5.1_H5.1_A5.1_[T5A]_[T6C]_[A7C]_F5.1_[T9C]_[A10G]_T5.1 (ssRNA)
RNA: B1 RNA with U32A, U33C, A34C, A35U, U37G
B18: Ic_S2_P5E.1_K5.1_C5.1_H5.1_A5.1_[T5A]_[A7T]_F5.1_[T8A]_[T9C]_[A10G]_T5.1 (ssRNA)
RNA: B1 RNA with U32A, A34U, U37G
B19: Ic_S2_P5E.1_K5.1_C5.1_H5.1_A5.1_[T5G]_[A7T]_F5.1_[T8G]_[T9C]_[A10T]_T5.1 (ssRNA)
RNA: B1 RNA with U32G, A34U, A35G
B20: Ic_S2_P5E.1_K5.1_C5.1_H5.1_A5.1_[T5C]_[T6C]_F5.1_[T9C]_[A10C]_T5.1 (ssRNA)
RNA: B1 RNA with U32C, U33C, A35U, U37C
B21: Ic_S2_P5E.1_K5.1_C5.1_H5.1_A5.1_[T6A]_F5.1_[T8C]_[T9G]_[A10T]_T5.1 (ssRNA)
RNA: B1 RNA with U33A, A35C, C36G
B22: Ic_S2_P5E.1_K5.1_C5.1_H5.1_A5.1_[T6A]_F5.1_[T8A]_[T9A]_T5.1 (ssRNA)
RNA: B1 RNA with U33A, C36A, U37A
B23: Ic_S2_P5E.1_K5.1_C5.1_H5.1_A5.1_[T5C]_[T6C]_[A7G]_F5.1_[T8G]_[A10C]_T5.1 (ssRNA)
RNA: B1 RNA with U32C, U33C, A34G, A35G, C36U, U37C
B24: Ic_S2_P5E.1_K5.1_C5.1_H5.1_A5.1_[T5C]_[T6G]_[A7T]_F5.1_[T8G]_[A10T]_T5.1 (ssRNA)
RNA: B1 RNA with U32C, U33G, A34U, A35G, C36U

Molecular target: T1, PUF4 RNA-binding domain
Assay: Mg; RNA-MaP; 20 mM Na-HEPES pH 7.4, 30 mM KOAc, 0.75 mM MgCl2, 0.1% Tween-20, 5% glycerol, 0.1 mg/mL BSA, 2 mM DTT; 25 C; 0.0125-409.6 nM protein
Details: tags: N-His6-TEV cleaved; C-SNAP kept, Cy3B-labelled; label: tethered on chip by stalled RNA polymerase

| Binder | Kd [nM] |
| --- | --- |
| UCUCUUGGUAUAUUCUCUCUU (ssRNA) [Ib_S1_P4E.1_K4.1_C4.1_H4.1_[T1G]_A4.1_F4.1_[A9C]_T4.1] | > 2300 |
| UCUCUUAGUAUAUUGUCUCUU (ssRNA) [Ib_S1_P4E.1_K4.1_C4.1_H4.1_[T1A]_A4.1_F4.1_[A9G]_T4.1] | 631 |
| UCUCUUGGUAUAUUGUCUCUU (ssRNA) [Ib_S1_P4E.1_K4.1_C4.1_H4.1_[T1G]_A4.1_F4.1_[A9G]_T4.1] | 690 |
| UCUCUUCGUAUAUUGUCUCUU (ssRNA) [Ib_S1_P4E.1_K4.1_C4.1_H4.1_[T1C]_A4.1_F4.1_[A9G]_T4.1] | 663 |
| UCUCUUUUUAUAUUAUCUCUU (ssRNA) [Ia_S1_P4E.1_K4.1_C4.1_H4.1_[G2T]_A4.1_F4.1_T4.1] | 655 |
| B1 | 558 |
| B2 | 87.8 |
| B3 | 1000 |
| B4 | 751 |
| B5 | 304 |
| B6 | 0.983 |
| B7 | 768 |
| B8 | 49 |
| B9 | 70.7 |
| B10 | 6.4 |
| B11 | 36.5 |
| B12 | 43.1 |
| B13 | 17.4 |
| B14 | 50.8 |
| B15 | 423 |
| B16 | 623 |
| B17 | 563 |
| B18 | 761 |
| B19 | 436 |
| B20 | 8.45 |
| B21 | 15 |
| B22 | 34.6 |
| B23 | > 2300 |
| B24 | 22.9 |

Reference: PMC9352680, “A comprehensive thermodynamic model for RNA binding by the Saccharomyces cerevisiae Pumilio protein PUF4”
